Reference: patent publication US7393670B2, “Tyrosyl-tRNA synthetase variants” (Japan Science and Technology Agency, priority 2001, dated 2008)

Columns and labels:
Assay type in all cases: biochemical
[1] = Aminoacylation activity by Lloyd's method (release of pyrophosphates); conditions: for relative tyrosine analogue to tyrosine ratio: 3-iodotyrosine versus tyrosine, from Table 4; for Initial velocity of release of pyrophosphates, 3-iodotyrosine / Initial velocity of release of pyrophosphates, Tyrosine: at 37° C.; for Initial velocity of release of pyrophosphates, 3-iodotyrosine: 200 μM 3-iodotyrosine; for Initial velocity of release of pyrophosphates, Tyrosine: 200 μM tyrosine
Method: In the second method, Lloyd's method (Nucleic Acids Research, 23:2886-2892, 1995) was carried out without alteration.
In the second method, the activity was assayed by Lloyd's method (Nucleic Acids Research, 23:2886-2892, 1995). Each enzyme obtained was incubated with 0.4 ml of the buffer B containing 1 mM ATP (Seikagaku Corporation), 100 μM purified crude tyrosyl-tRNA, 200 μM tyrosine or 3-iodotyrosine at 37° C. for 6 min. The aminoacylation activity was represented as concentrations of released phosphate per min.

[2] = Aminoacylation reaction, simplified Lloyd's method, inorganic phosphate detected with Biomol green; set-up: key: ***: the reaction could be detected strongly at 25 nM; **: strongly at 250 nM; *: weakly at 250 nM; the activity is high in the order of *** > ** > * > —; conditions: Table 3; tyrosine 200 μM; 37° C. for 4 min
Method: (§1) In the first method, Lloyd's method (Nucleic Acids Research, 23:2886-2892, 1995) where inorganic phosphate produced by pyrophosphatase-drived hydrolysis of pyrophosphate which was one of the reaction products of the aminoacylation reactions was quantified was simplified, and the inorganic phosphate was detected using Biomol green (Funakoshi) to carry out the measurement of the aminoacylation reaction.
(§2) Amino acid concentrations were 200 μM and 1 mM for tyrosine and 3-iodotyrosine, respectively.
(§3) The method where the aminoacylation reaction is measured by quantifying inorganic phosphate produced by pyrophosphatase-drived hydrolysis of pyrophosphate which is one of reaction products of the aminoacylation has been described by Lloyd et al. (Nucleic Acids Research, 23:2886-2892, 1995). In one method of the invention, this method was simplified and the aminoacylation reaction was measured by the detection of inorganic phosphate using Biomol green (Funakoshi). […] To stop the reaction, 0.1 ml of Bio mol green was added. Absorbance of its supernatant was measured at 630 nm.

[3] = as above; set-up: key: ***: the reaction could be detected strongly at 25 nM; **: strongly at 250 nM; *: weakly at 250 nM; the activity is high in the order of *** > ** > * > —; conditions: Table 3; 3-iodotyrosine 1 mM; 37° C. for 4 min
Method: as §1, §2
(§4) The method where the aminoacylation reaction is measured by quantifying inorganic phosphate produced by pyrophosphatase-drived hydrolysis of pyrophosphate which is one of reaction products of the aminoacylation has been described by Lloyd et al. (Nucleic Acids Research, 23:2886-2892, 1995). In one method of the invention, this method was simplified and the aminoacylation reaction was measured by the detection of inorganic phosphate using Biomol green (Funakoshi). Each enzyme obtained was incubated with 0.05 ml of the buffer B containing 1 mM ATP (Seikagaku Corporation), 30 μM purified crude tyrosyl-tRNA, and 100 μM tyrosine or 0.5 mM 3-iodotyrosine at 37° C. for one hour. To stop the reaction, 0.1 ml of Bio mol green was added. Absorbance of its supernatant was measured at 630 nm.

[4] = as above; set-up: key: ***: the aminoacylation reaction was detected by a microplate reader in the reaction at enzyme concentrations of 50 nM; **: 500 nM; *: 5 μM; the activity is high in the order of *** > ** > * > —; conditions: Table 2; tyrosine 200 μM; 37° C. for 4 min
Method: as §1, §2, §3

[5] = as above; set-up: key: ***: the aminoacylation reaction was detected by a microplate reader in the reaction at enzyme concentrations of 50 nM; **: 500 nM; *: 5 μM; the activity is high in the order of *** > ** > * > —; conditions: Table 2; 3-iodotyrosine 1 mM; 37° C. for 4 min
Method: as §1, §2, §4

Row | Molecule | relative tyrosine analogue to tyrosine ratio [1] | Initial velocity of release of pyrophosphates, 3-iodotyrosine [1] [nM PPi/min/nM enzyme] | Initial velocity of release of pyrophosphates, Tyrosine [1] [nM PPi/min/nM enzyme] | Aminoacylation activity, Tyrosine [2] | Aminoacylation activity, 3-iodotyrosine [3] | Aminoacylation activity, Tyrosine [4] | Aminoacylation activity, 3-iodotyrosine [5]
1 | VS: E. coli TyrRS double variant: position 37 Valine, position 195 Serine (protein, UniProt P0AGJ9 2-424, looked up, variant Y37V Q195S) Tyrosine--tRNA ligase: ASSNLIKQLQERGLVAQVTDEEALAERLAQGPIALVCGFDPTADSLHLGHLVPLLCLKRFQQAGHKPVALVGGATGLIGDPSFKAAERKLNTEETVQEWVDKIRKQVAPFLDFDCGENSAIAANNYDWFGNMNVLTFLRDIGKHFSVNQMINKEAVKQRLNREDQGISFTEFSYNLLQGYDFACLNKQYGVVLSIGGSDQWGNITSGIDLTRRLHQNQVFGLTVPLITKADGTKFGKTEGGAVWLDPKKTSPYKFYQFWINTADADVYRFLKFFTFMSIEEINALEEEDKNSGKAPRAQYVLAEQVTRLVHGEEGLQAAKRITECLFSGSLSALSEADFEQLAQDGVPMVEMEKGADLMQALVDSELQPSRGQARKTIASNAITINGEKQSDPEYFFKEEDRLFGRFTLLRRGKKNYCLICWK | inferior to VC | 18 | 19 | ** | ** | – | –
2 | 37V: E. coli TyrRS variant: position 37 Valine, position 195 Glutamine (protein, UniProt P0AGJ9 2-424, looked up, variant Y37V) Tyrosine--tRNA ligase: ASSNLIKQLQERGLVAQVTDEEALAERLAQGPIALVCGFDPTADSLHLGHLVPLLCLKRFQQAGHKPVALVGGATGLIGDPSFKAAERKLNTEETVQEWVDKIRKQVAPFLDFDCGENSAIAANNYDWFGNMNVLTFLRDIGKHFSVNQMINKEAVKQRLNREDQGISFTEFSYNLLQGYDFACLNKQYGVVLQIGGSDQWGNITSGIDLTRRLHQNQVFGLTVPLITKADGTKFGKTEGGAVWLDPKKTSPYKFYQFWINTADADVYRFLKFFTFMSIEEINALEEEDKNSGKAPRAQYVLAEQVTRLVHGEEGLQAAKRITECLFSGSLSALSEADFEQLAQDGVPMVEMEKGADLMQALVDSELQPSRGQARKTIASNAITINGEKQSDPEYFFKEEDRLFGRFTLLRRGKKNYCLICWK | – | 73 | 140 | *** | *** | *** | ***
3 | AC: E. coli TyrRS double variant: position 37 Alanine, position 195 Cysteine (protein, UniProt P0AGJ9 2-424, looked up, variant Y37A Q195C) Tyrosine--tRNA ligase: ASSNLIKQLQERGLVAQVTDEEALAERLAQGPIALACGFDPTADSLHLGHLVPLLCLKRFQQAGHKPVALVGGATGLIGDPSFKAAERKLNTEETVQEWVDKIRKQVAPFLDFDCGENSAIAANNYDWFGNMNVLTFLRDIGKHFSVNQMINKEAVKQRLNREDQGISFTEFSYNLLQGYDFACLNKQYGVVLCIGGSDQWGNITSGIDLTRRLHQNQVFGLTVPLITKADGTKFGKTEGGAVWLDPKKTSPYKFYQFWINTADADVYRFLKFFTFMSIEEINALEEEDKNSGKAPRAQYVLAEQVTRLVHGEEGLQAAKRITECLFSGSLSALSEADFEQLAQDGVPMVEMEKGADLMQALVDSELQPSRGQARKTIASNAITINGEKQSDPEYFFKEEDRLFGRFTLLRRGKKNYCLICWK | inferior to VC | 3.1 | 1.0 | * | ** | – | –
4 | VA: E. coli TyrRS double variant: position 37 Valine, position 195 Alanine (protein, UniProt P0AGJ9 2-424, looked up, variant Y37V Q195A) Tyrosine--tRNA ligase: ASSNLIKQLQERGLVAQVTDEEALAERLAQGPIALVCGFDPTADSLHLGHLVPLLCLKRFQQAGHKPVALVGGATGLIGDPSFKAAERKLNTEETVQEWVDKIRKQVAPFLDFDCGENSAIAANNYDWFGNMNVLTFLRDIGKHFSVNQMINKEAVKQRLNREDQGISFTEFSYNLLQGYDFACLNKQYGVVLAIGGSDQWGNITSGIDLTRRLHQNQVFGLTVPLITKADGTKFGKTEGGAVWLDPKKTSPYKFYQFWINTADADVYRFLKFFTFMSIEEINALEEEDKNSGKAPRAQYVLAEQVTRLVHGEEGLQAAKRITECLFSGSLSALSEADFEQLAQDGVPMVEMEKGADLMQALVDSELQPSRGQARKTIASNAITINGEKQSDPEYFFKEEDRLFGRFTLLRRGKKNYCLICWK | – | 6.6 | 3.7 | * | ** | – | –
